This passage reports cell migration of U87-MG cells (transwell, 50 ug/ml scFv), cell migration of patient-derived 83 cells (transwell) and cell migration of patient-derived 131 cells (transwell) results from US20180244776A1.

In this test the target is T1, human Sema3A (human) (UniProt Q14563).
T1 sequence (looked up): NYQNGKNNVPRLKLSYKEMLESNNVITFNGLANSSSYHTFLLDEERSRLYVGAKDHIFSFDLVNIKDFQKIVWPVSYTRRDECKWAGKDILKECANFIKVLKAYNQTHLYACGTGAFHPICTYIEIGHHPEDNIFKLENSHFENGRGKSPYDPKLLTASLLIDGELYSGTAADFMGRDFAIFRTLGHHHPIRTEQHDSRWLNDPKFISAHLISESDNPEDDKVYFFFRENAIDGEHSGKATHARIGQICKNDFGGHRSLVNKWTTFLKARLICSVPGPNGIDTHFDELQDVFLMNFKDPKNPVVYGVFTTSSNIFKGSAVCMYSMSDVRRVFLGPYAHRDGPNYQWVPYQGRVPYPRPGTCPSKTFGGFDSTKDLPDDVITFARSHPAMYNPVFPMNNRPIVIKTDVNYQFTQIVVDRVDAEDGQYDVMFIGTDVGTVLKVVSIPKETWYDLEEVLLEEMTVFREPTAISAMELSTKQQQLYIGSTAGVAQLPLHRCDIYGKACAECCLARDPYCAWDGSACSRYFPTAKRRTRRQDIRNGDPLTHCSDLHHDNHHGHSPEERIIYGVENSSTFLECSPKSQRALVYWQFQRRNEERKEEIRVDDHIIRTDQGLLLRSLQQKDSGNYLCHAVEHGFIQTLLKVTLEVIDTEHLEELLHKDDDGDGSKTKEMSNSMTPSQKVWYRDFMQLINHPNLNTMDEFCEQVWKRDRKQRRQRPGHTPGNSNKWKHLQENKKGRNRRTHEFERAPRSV
Briefly: cell-based or functional assay.

B1: F11 anti-Sema3A scFv antibody fragment (scFv, part only; not given: linker and His/HA tags, V domains shown, not shown: another chain or arm of the molecule; large carriers; small tags and cut ends)
VH: EVQLLESGGGLVQTGGSLRLSCAASGFTFSDYAMSWVRQAPGKGLEWVSWIYYDSGSKYYADSVKGRFTISRDNSKNTLYLQMNSLRAEDTAVYYCAKLNGDFDYWGQGTLVTVSS
VL: QSVLTQPPSASGTPGQRVTISCSGSSSNIGNNDVSWYQQLPGTAPKLLIYADSHRPSGVPDRFSGSKSGTSASLAISGLRSEDEADYYCGAWDSSLSGYVFGGGTKLTVL
Turning to B1, the cell migration of U87-MG cells (transwell, 50 ug/ml scFv) was 74 % of control; the cell migration of patient-derived 83 cells (transwell) amounted to 28%; the cell migration of patient-derived 131 cells (transwell) was 7%.

B2: C10 anti-Sema3A scFv antibody fragment (scFv, part only; not given: linker and His/HA tags, V domains shown, not shown: another chain or arm of the molecule; large carriers; small tags and cut ends)
VH: EVQLLESGGGLVQPGGSLRLSCAASGFTFSDYAMSWVRQAPGKGLEWVSGIYYDDSSQYYADSVEGRFTISRDNSKNTLYLQMNSLRAEDTAVYYCARYLGLFDYWGQGTLVTVSS
VL: QSVLTQPPSASGTPGQRVTISCSGSSSNIGNNSVNWYQQLPGTAPKLLIYSDSQRPSGVPDRFSGSKSGTSASLAISGLRSEDEADYYCGSWDYSLSAYVFGGGTKLTVL
Consider B2, for which the cell migration of U87-MG cells (transwell, 50 ug/ml scFv) was 70 % of control; the cell migration of patient-derived 83 cells (transwell) is 44%; the cell migration of patient-derived 131 cells (transwell) is 19%.

B3: A08 anti-Sema3A scFv antibody fragment (scFv, part only; not given: linker and His/HA tags, V domains shown, not shown: another chain or arm of the molecule; large carriers; small tags and cut ends)
VH: EVQLLESGGGLVQPGGSLRLSCAASGFTFSDYAMSWVRQAPGKGLEWVSGIYYDDSSQYYADSVKGRFTISRDNSKNTLYLQMNSLRAEDTAVYYCAKNLGRFDYWGQGTLVTVSS
VL: QSVLTQPPSASGTPGQRVTISCTGSSSNIGSNAVTWYQQLPGTAPKLLIYDDNHRPSGVPDRFSGSKSGTSASLAISGLRSEDEADYYCGAWDDSLSAYVFGGGTKLTVL
B3: the cell migration of U87-MG cells (transwell, 50 ug/ml scFv) was 78 % of control; the cell migration of patient-derived 83 cells (transwell) was 21%; the cell migration of patient-derived 131 cells (transwell) was 11%.
